Reference: patent US20140287419A1, “Compositions Having Dicamba Decarboxylase Activity and Methods of Use” (priority 2013, published 2014)

B1: 106 (protein, listed as Pyrococcus horikoshii)
chain: MAGMKFIKNLHVSKLVIDSMKALINGTIYTSFNPLKKVSGLVISHGKVIYAGDSEVAKKIVELSGGEIVDLKGKYVMPAFFDSHLHLDELGMSLEMVDLRGAKSIEELIQRLKRGKGRIIFGFGWDQDELGEWPTRKELNAIDKPVFIYRKCFHVAVANDKMLELLNLTPSKDFDEDTGIIKEKSLEEARKVINERVLTVEDYVYYIKRAQEHLLDLGVKSVSFMSVNEKALRALFYLEREGKLSINVFAYVTPEVLDKLESIGLGRFQGNRLTIAGVKLFTDGSLGARTALLSKPYSDDPSTSGQLVMEREELIRITEKARSLGLDVAIHAIGDKALDVALDVFETTGFPGRIEHASLVRDDQLERVKNLKVRLSVQPHFIISDWWIVERVGEERVKWVYRFKDLMKVAELGFSTDSPIEPADPWLTVDAAVNRGKGKVKLYELTKDQALDIKDALHSYTYGSARVSLASDIGKLEPGFKAEYIILDRDPLVVK
B2: 97 (protein, listed as Sphingobium sp.)
chain: MAMMIIDCHGHYTVLPKAHDEWREQQKAAFKAGQPAPPYPEISDDEIRETIEANQLRLIKERGADMTIFSPRASAMAPHVGDQSVAVPWAQACNNLIARVVDLFPETFAGVCMLPQSPEADMTSSIAELERCVNELGFIGCNLNPDPGGGHFKHPPLTDRFWYPFYEKMVELDVPAMIHVSGSCNPAMHATGAYYLAADTIAFMQLLQGNLFADFPTLRFIIPHGGGAVPYHWGRFRGLADMLKQPSLDTLLMNNVFFDTCVYHQPGINLLADVIDNKNILFGSEMVGAVRGIDPTTGHYFDDTKRYIDALDISDQERHAIFEGNTRRVFPRLDAKLKARGL
B3: 96 (protein)
chain: MAPLIVDVHTHVYPPAYMQMLRSRKTVPYVHDPSNNRDPRLIILSSDDDASIPLDQRGRPVDSSYWDINVKLSFMRQHGINCSVISLANPWLDFVEPAEAQMWAERINDDLEKTCATVNKAADPGNTLTLDQKETLFAFGALPLSAPSSESVVAEIKRLKTLEHLRGVIMGTSGLGKGLDDARLDPVWEALQETDMLMFLHPHYGLPEEAYGGPETTGRYGHVLPLALGFPLETTIAVTRMLLSGVFDRFPRLKILLAHSGGTLPFLAGRIESCILHERKFISGGGDVQGPQRSVWDVLKTNIYLDAVVYGKPGLEAAMTASGSDRLLFGTDHPFFPPLDSKDNSWPSVTTNYQAIHATFDTNSKTVADVLGGNAARILNLK
modifications: Aspergillus nidulans
B4: 105 (protein)
chain: MAIDFHVHLDLYPDPVAVARACEERQLTVLSVTTTPAAWRGTLALAAGRPHVWTALGFHPEVVSERAADLPWFDRYLPETRFVGEVGLDGSPSLRGTWTQQFAVFQHILRRCEDHGGRILSIHSRRAESEVLNCLEANPRSGTPILHWYSGSVTELRRAISLGCWFSVGPTMVRTQKGAALIRSMPRDRVLTETDGPFLELDGQAALPWDVKSVVEGLSKIWQIPASEVERIVKENVSRLLGTVR
modifications: Deinococcus radiodurans
B5: 101 (protein, listed as Aquifex aeolicus)
chain: MAQKIALCITGASGVIYGIKLLQVLEELDFSVDLVISRNAKVVLKEEHSLTFEEVLKGLKNVRIHEENDFTSPLASGSRLVHYRGVYVVPCSTNTLSCIANGINKNLIHRVGEVALKERVPLVLLVREAPYNEIHLENMLKITRMGGVVVPASPAFYHKPQSIDDMINFVVGKLLDVLRIEHNLYKRWRG
B6: 104 (protein)
chain: MANILQEPIDFLKKEELKNIDLSQMSKKERYKIWKRIPKCELHCHLDLCFSADFFVSCIRKYNLQPNLSDEEVLDYYLFAKGGKSLGEFVEKAIKVADIFHDYEVIEDLAKHAVFNKYKEGVVLMEFRYSPTFVAFKYNLDIELIHQAIVKGIKEVVELLDHKIHVALMCIGDTGHEAANIKASADFCLKHKADFVGFDHGGHEVDLKEYKEIFDYVRESGVPLSVHAGEDVTLPNLNTLYSAIQVLKVERIGHGIRVAESQELIDMVKEKNILLEVCPISNVLLKNAKSMDTHPIRQLYDAGVKVSVNSDDPGMFLTNINDDYEELYTHLNFTLEDFMKMNEWALEKSFMDSNIKDKIKNLYF
modifications: Plasmodium Vivax
B7: 8 (protein, listed as Metarhizium anisopliae)
chain: MARGKINFEEAFELPTLADSSREQAALYIAPKDLDRYIYHIKHPLGERLQLANSHGIGYTIYSLTVPGIQGIPDQSKAEQHATTVNDWIANEIKDHRDRLGAFAALSMHDAAQAAAELERCVRQHGFHGALLNNYQHAGPDGETYLFYDQPAYDVFWQKCVELDVPVYLHPAAPAGNYYKQMYAQRKYLVGPPLSFANDVSLHLLGLVTNGVFDRFPKLKVVVGHLGEHIPFDFWRISHWLEDVERPLAAGRGDVMSKKDLLYYFKNNIWVTTSGHFSTPTVRYVADYLGPERIMFSVDTPYETIENGVGWFDGEEDALTRALGGEDGYKKVARENAKKLFKLTKYHDCDA
B8: 103 (protein)
chain: MAMEIPTEEIKFLKKEDVQNIDLNGMSKKERYEIWRRIPKVELHCHLDLTFSAEFFLKWARKYNLQPNMSDDEILDHYLFTKEGKSLAEFIRKAISVSDLYRDYDFIEDLAKWAVIEKYKEGVVLMEFRYSPTFVSSSYGLDVELIHKAFIKGIKNATELLNNKIHVALICISDTGHAAASIKHSGDFAIKHKHDFVGFDHGGREIDLKDHKDVYHSVRDHGLHLTVHAGEDATLPNLNTLYTAINILNVERIGHGIRVSESDELIELVKKKDILLEVCPISNLLLNNVKSMDTHPIRKLYDAGVKVSVNSDDPGMFLSNINDNYEKLYIHLNFTLEEFMIMNNWAFEKSFVSDDVKSELKALYF
modifications: Plasmodium yoelii yoelii
B9: 107 (protein, listed as Rhodopseudomonas palustris)
chain: MAIIDIHGHYTTAPKALEDWRNRQIAGIKDPSVMPKVSELKISDDELQASIIENQLKKMQERGSDLTVFSPRASFMAHHIGDFNVSSTWAAICNELCYRVSQLFPDNFIGAAMLPQSPGVDPKTCIPELEKCVKEYGFVAINLNPDPSGGHWTSPPLTDRIWYPIYEKMVELEIPAMIHVSTSCNTCFHTTGAHYLNADTTAFMQCVAGDLFKDFPELKFVIPHGGGAVPYHWGRFRGLAQEMKKPLLEDHVLNNIFFDTCVYHQPGIDLLNTVIPVDNVLFASEMIGAVRGIDPRTGFYYDDTKRYIEASTILTPEEKQQIYEGNARRVYPRLDAALKAKGK
B10: 108 (protein, listed as Staphylococcus aureus)
chain: MAKSITFEEHYVIEDIQKETMNAISADPKGVPMKVMLEGLEKKTGFTNADELSHHDERIQFMNNQDVQIQVLSYGNGSPSNLVGQKAIELCQKANDQLANYIAQYPNRFVGFATLPINEPEAAAREFERCINDLGFKGALIMGRAQDGFLDQDKYDIIFKTAENLDVPIYLHPAPVNSDIYQSYYKGNYPEVTAATFACFGYGWHIDVGIHAIHLVLSGIFDRYPKLNMIIGHWGEFIPFFLERMDEALFAEHLNHSVSYYFKNSFYITPSGMLTKPQFDLVKKEVGIDRILYAADYPYIEPEKLGVFLDELGLTDEEKEKISYTNGAKLLGLSSNN
B11: 102 (protein, listed as Lactobacillus plantarum)
chain: MATKTFKTLDDFLGTHFIYTYDNGWEYEWYAKNDHTVDYRIHGGMVAGRWVTDQKADIVMLTEGIYKISWTEPTGTDVALDFMPNEKKLHGTIFFPKWVEEHPEITVTYQNEHIDLMEQSREKYATYPKLVVPEFANITYMGDAGQNNEDVISEAPYKEMPNDIRNGKYFDQNYHRLNK
B12: 94 (protein, listed as Bacillus thuringiensis)
chain: MANRGDSNMKSLVGVIMGSTSDWETMKYACDILDELNIPYEKKVVSAHRTPDYMFEYAETARERGLKVIIAGAGGAAHLPGMVAAKTNLPVIGVPVQSKALNGLDSLLSIVQMPGGVPVATVAIGKAGSTNAGLLAAQILGSFHDDIHDALELRREAIEKDVREGSELV
B13: 98 (protein)
chain: MAIIDCHGHYTTAPAAHDAFRKAQIAHHDDPQQPAPQYPHISDDALRESIEQHQLRLLRERGADMTIFSPRASTMAHHIGNEAVSQVWTQRCNDLIARVVQLYPHTFIGVCQLPQSPGVPISHSIAELERCVNELGFVGCNLNPDPSGGHWNGVPLTDRAWYPFFEKMVELDVPAMVHVSGSCNANFHATGAHYLNADTTAFMQFLEGDLFRDFPSLRFIIPHGGGAVPYHWGRFRGLADMLGKPPLATHVMRNVFFDTCVYHQPGIDLLFEVIDIDNILFGSEMVGAVRGIDPQTGHYFDDTKRYIDALTISDADKRKVFEGNARRVYPRLDAQLRARGL
modifications: Xanthomonas campestris pv.
B14: 93 (protein, listed as Mucilaginibacter paludis)
chain: MAKYGKHITINKNMRIVTLEEHISFPEMADQIPKAALGSFGRSEAMQRIAPKLADITGERLKSMDANGISMQVLSVDSSGVNLLSPQQGPAFATQYNDLIANRIAGFEKRFTAFAHLPMTAPFAAADELERAVKEHHFCGAMIRGLTGDQFLDHPQFAPIFERAQKLDVPIYLHPGLPPKGVADIYYSGLPNYSGMAEALACYGWGWHSETALHVLRLLFSGIFDQYPKLKLVIGHMGEMLPMMMARSEKAFKPGNGGANVRTLTDTFRSQVYLTTSGFFTQPPLKIALDTFGIDHVMFSVDYPFSTNEMGIEFLNEIDLPDEEVARIAHGNADKLLNLKA
B15: 99 (protein, listed as Ralstonia solanacearum)
chain: MAIIDCHGHFTTAPTALEDWRKRQIANLATPALGPSPDDLKISDDALTEAIRANQLRLMQARGSDLTIFSPRASFMAHHIGDFHTSATWAAICNALCHRVSQLFPDHFVGAAMLPQSPGVDIRTCIPELARCIVDYGFVGVNLNPDPSGGHWTSPPLSDPYWFPLYEKLVEYDVPAMIHVSTSCNACFHTTGAHYLNADTTAFMQVLTSDLFRRFPTLKFVIPHGGGAVPYHWGRFRGLAQELKTPPLQEHLLHNVFFDTCVYHQPGIDLLTRVIPVDNILFASEMIGAVRGIDPETGHPFDDTRRYIDQAHTLSAEDRHKIYEGNARRVYPRLDARLKARGR

assay: 14C assay with IPTG-induced recombinant E. coli cells (14CO2 capture from [14C]-carboxyl-labeled dicamba); conditions: IPTG-induced recombinant E. coli cells; [14C]-carboxyl-labeled dicamba; 14CO2 capture

Row | Molecule | Dicamba Decarboxylase Activity
1 | B1 | No
2 | B2 | No
3 | B3 | No
4 | B4 | No
5 | B5 | No
6 | B6 | No
7 | B7 | Low
8 | B8 | No
9 | B9 | No
10 | B10 | High
11 | B11 | No
12 | B12 | No
13 | B13 | No
14 | B14 | Low
15 | B15 | No

same assay, conditions: dicamba decarboxylation activity of the protein of the given SEQ ID NO

Row | Molecule | Enzymatic Detection level
16 | B1 | No
17 | B2 | No
18 | B3 | No
19 | B4 | No
20 | B5 | No
21 | B6 | No
22 | B7 | Low
23 | B8 | No
24 | B9 | No
25 | B10 | High
26 | B11 | No
27 | B12 | No
28 | B13 | No
29 | B14 | Low
30 | B15 | No
